Here are results for one molecule from article PMC11461925 (2024).

In this experiment the target is Wu-1-RBD-I53-50A (SARS-CoV-2, UniProt P0DTC2 328-531). Put plainly: BLI.

B1: LY-CoV555 Fab (Fab, V domains shown)
VH: QVQLVQSGAEVKKPGSSVKVSCKASGGTFSNYAISWVRQAPGQGLEWMGRIIPILGIANYAQKFQGRVTITADKSTSTAYMELSSLRSEDTAVYYCARGYYEARHYYYYYAMDVWGQGTAVTVSS
VL: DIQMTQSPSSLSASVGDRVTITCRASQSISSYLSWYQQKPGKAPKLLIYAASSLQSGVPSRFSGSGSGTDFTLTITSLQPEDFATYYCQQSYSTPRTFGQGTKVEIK
The molecule B1 had a Kd of 26.9 nM.
